Laboratory results reported in the nanobody polyreactivity screen of Harvey et al. (2022).

Experiment: yeast display, Sf9 membrane polyspecificity reagent, FACS + sequencing; frameworks hold sequencing errors
Summary of the method: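 Galactose induction of a Saccharomyces cerevisiae BJ5465 synthetic nanobody display library ran 36–48 hours. The cells were then stained for 1 hour at 4 °C with 10% biotinylated, detergent-solubilized Sf9 membrane reagent, pulled down on streptavidin microbeads and FACS-sorted into low and high (top ~1%) gates on expression and reagent-binding fluorescence. Labels for polyreactivity follow the gate of origin.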

| Sequence | polyreactivity (PSR sort gate) |
| --- | --- |
| QVQLVESGGGLVQAGGSLRLSCAASGSILLDNAMGWSRQAPGKERELVAAISLSGGGSTYYADSVKGRFTISRDNAKNTVYLQMNSLKPEATAVYYCAAASTYPLPYDYWGQGTQVTVSS | low polyreactivity |
| QVQLVESGGGLVQAGGSLRLSCAASGSILLPYAMGRYRHAPGKERELVAAITYRGASTHYAASVKGRFTISRDNAKNTVYLQMNSLKQEDPAVYYCAARGWVYYASEMDYWGQGTQGTVSS | low polyreactivity |
| QVQLVESGGGLVQAGGSLRLSCAASGSILLRNTMGWYRQAPGKERELVAAISWRGGSTYYADSVKGRFTISRDNAKNTVYLQMNSLKPEDTAVYYCAARWVASHKGGYWGQGTQVTVSS | high polyreactivity |
| QVQLVESGGGLVQAGGSLRLSCAASGSILNRYAMGWYRQAPGKERELVAAISRRSGSTYYADSVKGRFTISRDNAKNTVYLQMNSLKPEDTAVYYCAATSSLGDFRYDYWGQGTQVTVSS | high polyreactivity |
| QVQLVESGGGLVQAGGSLRLSCAASGSILNSYAMGWYRQAPGKERELVATITSGSRTNYADSVKGRFTISRDNAKNTVYLQMNSLKPEDTAVYYCATEYQRRHYIGHNYWGQGTQVTVSS | low polyreactivity |
| QVQLVESGGGLVQAGGSLRLSCAASGSILPYYAMGWYRPAPGKERELVATITDGTDTYYADSVKGRFTISRDNAKNTVYLQMTSLKPEDTAVYYCARKQYWGYDYWGQGTQVTVSS | low polyreactivity |
| QVQLVESGGGLVQAGGSLRLSCAASGSILQPNAMGWYRQAPGKERELVAAISWSGDNTYYADSVKGRFTISRDNAKNTVYLQMNSLKPEDTAVYYCATDADIYFQEYDYWGQGTQVTVSS | low polyreactivity |
| QVQLVESGGGLVQAGGSLRLSCAASGSILQRYAMGWYRQAPGKERELVAAISTSGSSTYYADSVKGRFTISRDNAKNTVYLQMNSLKPEDTAVYYCAAKSRKFDYWGQGTQVTVSS | high polyreactivity |
| QVQLVESGGGLVQAGGSLRLSCAASGSILQTNVMGWYRQAPGKEREFVAAIRWSTVSTYYADSVKGRFTISRDNAKNTVYLQMKSLKPEDTAVYYCASAKSWYSYKMDYWGQGTQVTVSS | low polyreactivity |
| QVQLVESGGGLVQAGGSLRLSCAASGSILQYYAMGWYRQTPGKERELVAAITSGGSTYYADSVKGRFTISRDNAKNTVYLQMNSLKPEDTAVYYCAKVYRRAQYDYCGQGTQVTVSS | low polyreactivity |
| QVQLVESGGGLVQAGGSLRLSCAASGSILRLYVMGWYRQAPGKERELVADISDRGGSTYYADSVKGRFTISRDNAKNTVYLQLNSLKPEDTAVYYCDKDSETAGATYTEYDYWGQGTQVTVSS | low polyreactivity |
| QVQLVESGGGLVQAGGSLRLSCAASGSILRSNAMGWYRQAPGKERELVATITNSGGSTYADSVKGCFTISRDNANNTVYLQMNSLKPEDTAVYYCAKAGAGESIAKYDYWGQGTQVTVSS | low polyreactivity |
| QVQLVESGGGLVQAGGSLRLSCAASGSILSDNAMGWYRQAPGKERELVASIRSGDITKYADSVKGRFTFSRDNAKNTVYLQMNSLKPEDTAVYYCASAGRVLYTRKYYGWRYLNDYWGQGTQVTVSS | low polyreactivity |
| QVQLVESGGGLVQAGGSLRLSCAASGSILSFYAMGWYRQAPGKERELVATISRRGGSTYYADSVKGRFTISRDNAKNTVYLQMNSLKPEDTAVYYCNKPGLSAWTQSSQYEYDYWGQGTQVTVSS | high polyreactivity |
| QVQLVESGGGLVQAGGSLRLSCAASGSILSRYAMGWYRQAPGKERELVAAISSRGGSTYYADSVKGRFTISRDNAKNTVYLQMNSLKPEDTAVYYCAADPVGEVRVYARGYSWGQGTQVTVSS | high polyreactivity |
| QVQLVESGGGLVQAGGSLRLSCAASGSILSVNAMGWYRQAPGKERELVAAINWSGGSTYYADSVKGRFTISRDNAKNTVYLQMNSLKPEDTAVYYCAARWRYSYVGDFDYWGQGTQVTVSS | high polyreactivity |
| QVQLVESGGGLVQAGGSLRLSCAASGSILSYYAMGWYRQAPGKERELVAAISKTGGSTYYADSVKGRFTISRDNANNTVYLHMNSLKPEVTAVYYCAAVDNIGRYEYWGQGTQVTVSS | high polyreactivity |
